Experiments:
hCAR promoter = experiment: NHR-promoter luciferase screen, hCAR promoter; type: cell-based, human; conditions: for luciferase activity normalized to lacZ activity and to a control, hCAR: hCAR promoter-luciferase, CV-1 cells, NHR +/- ligand, control = 1.00; for Luc. act., normalized to lacZ / Normalized Luc. act., normalized to control: hCAR promoter, HR/ligand component
Method in brief: (§1)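 CV-1 cells were co-transfected with 50 ng NHR (homodimer or NHR/RXR heterodimer), 100 ng promoter-luciferase construct and 50 ng LacZ. Luciferase was normalized to LacZ and to a no-NHR/no-ligand control.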

mPer1 promoter = experiment: NHR-promoter luciferase screen, mPer1 promoter; type: cell-based, mouse; conditions: for Luc. act., normalized to lacZ / Normalized Luc. act., normalized to control: Per1 promoter reporter, co-transfected HR, with or without its ligand; for Normalized Luc. act., normalized to control: relative to control; for luciferase activity normalized to lacZ activity and to a control, mPer1: mPer1 promoter-luciferase, CV-1 cells, NHR +/- ligand, control = 1.00
Method in brief: as §1

mUCP1 promoter = experiment: NHR-promoter luciferase screen, mUCP1 promoter; type: cell-based, mouse; conditions: for Luc. act., normalized to lacZ / Normalized Luc. act., normalized to control: mUCP1 promoter reporter, co-transfected HR, with or without its ligand; for Normalized Luc. act., normalized to control: relative to control; for luciferase activity normalized to lacZ activity and to a control, mUCP!: mUCP! promoter-luciferase, CV-1 cells, NHR +/- ligand, control = 1.00
Method in brief: as §1

mAgrp promoter = experiment: NHR-promoter luciferase screen, mAgrp promoter; type: cell-based, mouse; conditions: for Results of assays of transcription factor (+/- ligand) with mAgrp: Table 6d, luciferase activity relative to control (control = 1.00); for Luc. act., normalized to lacZ / Normalized Luc. act., normalized to control: mAgrp promoter, HR component with or without ligand; for Normalized Luc. act., normalized to control: relative to control
Method in brief: as §1

hCYP3A4 promoter = experiment: NHR-promoter luciferase screen, hCYP3A4 promoter; type: cell-based, human; conditions: for Luc. act., normalized to lacZ / Normalized Luc. act., normalized to control: CYP3A4 promoter, HR/ligand component; for hCYP3A4 promoter reporter activity: transcription factor +/- ligand, control = 1.00
Method in brief: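 CV-1 cells co-transfected with NHR homodimer or NHR/RXR heterodimer (pcDNA3.1, C-terminal V5H6 tag), promoter-luciferase construct and LacZ transfection control. Orphan receptors screened without ligand. Luciferase normalized to LacZ and to no-NHR/no-ligand control.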

hPPARg1 promoter = experiment: NHR-promoter luciferase screen, hPPARg1 promoter; type: cell-based, human; conditions: for Luc. act., normalized to lacZ / Normalized Luc. act., normalized to control: PPARG1 promoter, hormone receptor with or without its ligand; for Normalized Luc. act., normalized to control: relative to control; for Results of assays of transcription factor (+/- ligand) with hPPARg1: Table 6d, luciferase activity relative to control (control = 1.00)
Method in brief: as §1

Molecule | luciferase activity normalized to lacZ activity and to a control, hCAR (hCAR promoter) | Luc. act., normalized to lacZ (hCAR promoter) | Normalized Luc. act., normalized to control (hCAR promoter) | Luc. act., normalized to lacZ (mPer1 promoter) | Normalized Luc. act., normalized to control (mPer1 promoter) | luciferase activity normalized to lacZ activity and to a control, mPer1 (mPer1 promoter) | Luc. act., normalized to lacZ (mUCP1 promoter) | Normalized Luc. act., normalized to control (mUCP1 promoter) | luciferase activity normalized to lacZ activity and to a control, mUCP! (mUCP1 promoter) | Results of assays of transcription factor (+/- ligand) with mAgrp (mAgrp promoter) | Luc. act., normalized to lacZ (mAgrp promoter) | Normalized Luc. act., normalized to control (mAgrp promoter) | Luc. act., normalized to lacZ (hCYP3A4 promoter) | Normalized Luc. act., normalized to control (hCYP3A4 promoter) | hCYP3A4 promoter reporter activity (hCYP3A4 promoter) | Luc. act., normalized to lacZ (hPPARg1 promoter) | Normalized Luc. act., normalized to control (hPPARg1 promoter) | Results of assays of transcription factor (+/- ligand) with hPPARg1 (hPPARg1 promoter)
HNF4g: Hepatocyte Nuclear Factor γ (NR2A2), cDNA driver (protein, UniProt Q14541 1-408, looked up) Hepatocyte nuclear factor …: MNTTDNGVNCLCAICGDRATGKHYGASSCDGCKGFFRRSIRKSHVYSCRFSRQCVVDKDKRNQCRYCRLRKCFRAGMKKEAVQNERDRISTRRSTFDGSNIPSINTLAQAEVRSRQISVSSPGSSTDINVKKIASIGDVCESMKQQLLVLVEWAKYIPAFCELPLDDQVALLRAHAGEHLLLGATKRSMMYKDILLLGNNYVIHRNSCEVEISRVANRVLDELVRPFQEIQIDDNEYACLKAIVFFDPDAKGLSDPVKIKNMRFQVQIGLEDYINDRQYDSRGRFGELLLLLPTLQSITWQMIEQIQFVKLFGMVKIDNLLQEMLLGGASNDGSHLHHPMHPHLSQDPLTGQTILLGPMSTLVHADQISTPETPLPSPPQGSGQEQYKIAANQASVISHQHLSKQKQL | 0.81 | 25.5 | 0.8 | 116.1 | 0.8 | 0.81 | 3.5 | 0.8 | 0.79 | 0.77 | 30.4 | 0.8 | 1.8 | 0.4 | 0.40 | 42.1 | 0.6 | 0.61
RXRg: Retinoic X Receptor γ (NR2B3), cDNA driver (protein, UniProt P48443 1-463, looked up) Retinoic acid receptor …: MYGNYSHFMKFPAGYGGSPGHTGSTSMSPSAALSTGKPMDSHPSYTDTPVSAPRTLSAVGTPLNALGSPYRVITSAMGPPSGALAAPPGINLVAPPSSQLNVVNSVSSSEDIKPLPGLPGIGNMNYPSTSPGSLVKHICAICGDRSSGKHYGVYSCEGCKGFFKRTIRKDLIYTCRDNKDCLIDKRQRNRCQYCRYQKCLVMGMKREAVQEERQRSRERAESEAECATSGHEDMPVERILEAELAVEPKTESYGDMNMENSTNDPVTNICHAADKQLFTLVEWAKRIPHFSDLTLEDQVILLRAGWNELLIASFSHRSVSVQDGILLATGLHVHRSSAHSAGVGSIFDRVLTELVSKMKDMQMDKSELGCLRAIVLFNPDAKGLSNPSEVETLREKVYATLEAYTKQKYPEQPGRFAKLLLRLPALRSIGLKCLEHLFFFKLIGDTPIDTFLMEMLETPLQIT | 0.93 | 29.3 | 0.9 | 94.5 | 0.7 | 0.66 | 2.5 | 0.6 | 0.55 | 1.30 | 51.5 | 1.3 | 0.9 | 0.2 | 0.19 | 43.7 | 0.6 | 0.63
CAR: Constitutive Androstane Receptor (NR1I3), cDNA driver (protein, UniProt Q14994 1-352, looked up) Nuclear receptor subfamily 1 …: MASREDELRNCVVCGDQATGYHFNALTCEGCKGFFRRTVSKSIGPTCPFAGSCEVSKTQRRHCPACRLQKCLDAGMRKDMILSAEALALRRAKQAQRRAQQTPVQLSKEQEELIRTLLGAHTRHMGTMFEQFVQFRPPAHLFIHHQPLPTLAPVLPLVTHFADINTFMVLQVIKFTKDLPVFRSLPIEDQISLLKGAAVEICHIVLNTTFCLQTQNFLCGPLRYTIEDGARVSPTVGFQVEFLELLFHFHGTLRKLQLQEPEYVLLAAMALFSPDRPGVTQRDEIDQLQEEMALTLQSYIKGQQRRPRDRFLYAKLLGLLAELRSINEAYGYQIQHIQGLSAMMPLLQEICS | 0.82 | 25.9 | 0.8 | 86.6 | 0.6 | 0.60 | 3.3 | 0.7 | 0.74 | 1.06 | 42.2 | 1.1 | 3.1 | 0.7 | 0.70 | 46.4 | 0.7 | 0.67
RXRb: Retinoic X Receptor β (NR2B2), cDNA driver (protein, UniProt P28702 1-533, looked up) Retinoic acid receptor …: MSWAARPPFLPQRHAAGQCGPVGVRKEMHCGVASRWRRRRPWLDPAAAAAAAVAGGEQQTPEPEPGEAGRDGMGDSGRDSRSPDSSSPNPLPQGVPPPSPPGPPLPPSTAPSLGGSGAPPPPPMPPPPLGSPFPVISSSMGSPGLPPPAPPGFSGPVSSPQINSTVSLPGGGSGPPEDVKPPVLGVRGLHCPPPPGGPGAGKRLCAICGDRSSGKHYGVYSCEGCKGFFKRTIRKDLTYSCRDNKDCTVDKRQRNRCQYCRYQKCLATGMKREAVQEERQRGKDKDGDGEGAGGAPEEMPVDRILEAELAVEQKSDQGVEGPGGTGGSGSSPNDPVTNICQAADKQLFTLVEWAKRIPHFSSLPLDDQVILLRAGWNELLIASFSHRSIDVRDGILLATGLHVHRNSAHSAGVGAIFDRVLTELVSKMRDMRMDKTELGCLRAIILFNPDAKGLSNPSEVEVLREKVYASLETYCKQKYPEQQGRFAKLLLRLPALRSIGLKCLEHLFFFKLIGDTPIDTFLMEMLEAPHQLA | 0.95 | 30.1 | 1.0 | 50.5 | 0.4 | 0.35 | 0.9 | 0.2 | 0.21 | 1.30 | 51.6 | 1.3 | 0.3 | 0.1 | 0.06 | 23.1 | 0.3 | 0.34
RORb: RAR-related Orphan Receptor β (NR1F2), cDNA driver (protein, UniProt Q92753 1-470, looked up) Nuclear receptor ROR-beta: MCENQLKTKADATAQIEVIPCKICGDKSSGIHYGVITCEGCKGFFRRSQQNNASYSCPRQRNCLIDRTNRNRCQHCRLQKCLALGMSRDAVKFGRMSKKQRDSLYAEVQKHQQRLQEQRQQQSGEAEALARVYSSSISNGLSNLNNETSGTYANGHVIDLPKSEGYYNVDSGQPSPDQSGLDMTGIKQIKQEPIYDLTSVPNLFTYSSFNNGQLAPGITMTEIDRIAQNIIKSHLETCQYTMEELHQLAWQTHTYEEIKAYQSKSREALWQQCAIQITHAIQYVVEFAKRITGFMELCQNDQILLLKSGCLEVVLVRMCRAFNPLNNTVLFEGKYGGMQMFKALGSDDLVNEAFDFAKNLCSLQLTEEEIALFSSAVLISPDRAWLIEPRKVQKLQEKIYFALQHVIQKNHLDDETLAKLIAKIPTITAVCNLHGEKLQVFKQSHPEIVNTLFPPLYKELFNPDCATGCK | 1.05 | 33.3 | 1.1 | 112.0 | 0.8 | 0.78 | 3.8 | 0.9 | 0.86 | 1.37 | 54.3 | 1.4 | 2.5 | 0.6 | 0.56 | 51.1 | 0.7 | 0.74

From US20110263454A1, “Methods of Identifying Functional Characteristics of Promoters, Transcription Modifying Proteins and Transcription Modulating Agents” (Salk Institute for Biological Studies, priority 2008, published 2011)
